In patent publication US20230242658A1 (published 2023):
Positions count from the first letter of the chain named.

B1: PR007142 (bispecific antibody)
light: DIQMTQSPSTLSASVGDRVTVTCRASQSIYIWLAWYQQKPGKAPNLLIYKASSLETGVPSRFSGSGSGTEFTLTISSLQPDDFATYYCQQYYGSSRTFGQGTKVEIKRTVAAPSVFIFPPSDEQLKSGTASVVCLLNNFYPREAKVQWKVDNALQSGNSQESVTEQDSKDSTYSLSSTLTLSKADYEKHKVYACEVTHQGLSSPVTKSFNRGEC
heavy: EVQLVESGGGLVQPGGSLRLSCAASGFTFSSYWMSWVRQAPGKGLEWVANIKQEGSEKYYVDSVKGRFTISRDNAKNSLYLQMNSLRAEDTAVYYCARDRAVAGAFDIWGQGTMVTVSSASTKGPSVFPLAPSSKSTSGGTAALGCLVKDYFPEPVTVSWNSGALTSGVHTFPAVLQSSGLYSLSSVVTVPSSSLGTQTYICNVNHKPSNTKVDKKVEPKSCDKTHTCPPCPAPEAAGAPSVFLFPPKPKDTLMISRTPEVTCVVVDVSHEDPEVKFNWYVDGVEVHNAKTKPREEQYNSTYRVVSVLTVLHQDWLNGKEYKCKVSNKALPAPIEKTISKAKGQPREPQVYTLPPSREEMTKNQVSLTCLVKGFYPSDIAVEWESNGQPENNYKTTPPVLDSDGSFFLYSKLTVDKSRWQQGNVFSCSVMHEALHNHYTQKSLSLSPGGGSGGSEVQLVESGGGLVKPGGSLRLSCAASGFTFSDYYMSWIRQAPGKGLEWVSYISNNGSTIYYADSVKGRFTISRDNAKNSLYLQMNSLRAEDTAVYYCARVRPGGSGNYWDWFDPWGQGTMVTVSS
B2: PR007137 (bispecific antibody)
light: B1 light
heavy: EVQLVESGGGLVQPGGSLRLSCAASGFTFSSYWMSWVRQAPGKGLEWVANIKQEGSEKYYVDSVKGRFTISRDNAKNSLYLQMNSLRAEDTAVYYCARDRAVAGAFDIWGQGTMVTVSSASTKGPSVFPLAPSSKSTSGGTAALGCLVKDYFPEPVTVSWNSGALTSGVHTFPAVLQSSGLYSLSSVVTVPSSSLGTQTYICNVNHKPSNTKVDKKVEPKSCDKTHTCPPCPAPEAAGAPSVFLFPPKPKDTLMISRTPEVTCVVVDVSHEDPEVKFNWYVDGVEVHNAKTKPREEQYNSTYRVVSVLTVLHQDWLNGKEYKCKVSNKALPAPIEKTISKAKGQPREPQVYTLPPSREEMTKNQVSLTCLVKGFYPSDIAVEWESNGQPENNYKTTPPVLDSDGSFFLYSKLTVDKSRWQQGNVFSCSVMHEALHNHYTQKSLSLSPGGGSGGSEVQLVESGGGVVQPGRSLRLSCAASGFTFSDYYMSWFRQAPGKGLEWVSYISSSGTTIDYADSVKGRFTISRDNAKNSLYLQMNSLRAEDTAVYYCAREREEVAGTLDFDYWGQGTPVTVSS
B3: PR007133 (bispecific antibody)
light: B1 light
heavy: EVQLVESGGGLVQPGGSLRLSCAASGFTFSSYWMSWVRQAPGKGLEWVANIKQEGSEKYYVDSVKGRFTISRDNAKNSLYLQMNSLRAEDTAVYYCARDRAVAGAFDIWGQGTMVTVSSASTKGPSVFPLAPSSKSTSGGTAALGCLVKDYFPEPVTVSWNSGALTSGVHTFPAVLQSSGLYSLSSVVTVPSSSLGTQTYICNVNHKPSNTKVDKKVEPKSCDKTHTCPPCPAPEAAGAPSVFLFPPKPKDTLMISRTPEVTCVVVDVSHEDPEVKFNWYVDGVEVHNAKTKPREEQYNSTYRVVSVLTVLHQDWLNGKEYKCKVSNKALPAPIEKTISKAKGQPREPQVYTLPPSREEMTKNQVSLTCLVKGFYPSDIAVEWESNGQPENNYKTTPPVLDSDGSFFLYSKLTVDKSRWQQGNVFSCSVMHEALHNHYTQKSLSLSPGGGSGGSEVQLEESGGGLVKPGGSLRLSCAASGFTFSDYYMSWFRQAPGKGLEWVSYISSSGSITDYADAVKGRFNISRDNAKNSLYLQMNSLRAEDTAVYYCAREREAVAGTLDFDNWGQGTLVTVSS
B4: PR007135 (bispecific antibody)
light: B1 light
heavy: B3 heavy with E459V, S507G, T512I, A517S, N523T, A551S, N565Y
B5: PR007132 (bispecific antibody)
light: B1 light
heavy: EVQLVESGGGLVQPGGSLRLSCAASGFTFSSYWMSWVRQAPGKGLEWVANIKQEGSEKYYVDSVKGRFTISRDNAKNSLYLQMNSLRAEDTAVYYCARDRAVAGAFDIWGQGTMVTVSSASTKGPSVFPLAPSSKSTSGGTAALGCLVKDYFPEPVTVSWNSGALTSGVHTFPAVLQSSGLYSLSSVVTVPSSSLGTQTYICNVNHKPSNTKVDKKVEPKSCDKTHTCPPCPAPEAAGAPSVFLFPPKPKDTLMISRTPEVTCVVVDVSHEDPEVKFNWYVDGVEVHNAKTKPREEQYNSTYRVVSVLTVLHQDWLNGKEYKCKVSNKALPAPIEKTISKAKGQPREPQVYTLPPSREEMTKNQVSLTCLVKGFYPSDIAVEWESNGQPENNYKTTPPVLDSDGSFFLYSKLTVDKSRWQQGNVFSCSVMHEALHNHYTQKSLSLSPGGGSGGSEVQLVESGGGLVKPGGSLRLSCAASGFTFSDYYMSWIRQAPGKGLEWVSYISSSGSTIYYADSVKGRFTISRDNAKNSLYLQMNSLRAEDTAVYYCARVKPVAGTWDWFDPWGQGTPVTVSS
B6: PR007136 (bispecific antibody)
light: B1 light
heavy: B3 heavy with E459V, I511T, T512Q, A517S, N523T, A556P, L571P
B7: PR007130 (bispecific antibody)
light: B1 light
heavy: EVQLVESGGGLVQPGGSLRLSCAASGFTFSSYWMSWVRQAPGKGLEWVANIKQEGSEKYYVDSVKGRFTISRDNAKNSLYLQMNSLRAEDTAVYYCARDRAVAGAFDIWGQGTMVTVSSASTKGPSVFPLAPSSKSTSGGTAALGCLVKDYFPEPVTVSWNSGALTSGVHTFPAVLQSSGLYSLSSVVTVPSSSLGTQTYICNVNHKPSNTKVDKKVEPKSCDKTHTCPPCPAPEAAGAPSVFLFPPKPKDTLMISRTPEVTCVVVDVSHEDPEVKFNWYVDGVEVHNAKTKPREEQYNSTYRVVSVLTVLHQDWLNGKEYKCKVSNKALPAPIEKTISKAKGQPREPQVYTLPPSREEMTKNQVSLTCLVKGFYPSDIAVEWESNGQPENNYKTTPPVLDSDGSFFLYSKLTVDKSRWQQGNVFSCSVMHEALHNHYTQKSLSLSPGGGSGGSEVQLLESGGGLVQPGGSLRLSCAASGFTFSNYAMSWFRQPPETGLKWVSSIDASGGDTYYADSVKGRFTISRDNSKNTLYLQMNSLRAEDTAVYYCAKEGSHGTDDSHYDVDVWGQGTTVTVSS

Each binder was assayed against T1, human 4-1BB on CHO-K1 cells (human, UniProt Q07011 24-255) (assay: FACS).
T1 sequence (Q07011 24-255): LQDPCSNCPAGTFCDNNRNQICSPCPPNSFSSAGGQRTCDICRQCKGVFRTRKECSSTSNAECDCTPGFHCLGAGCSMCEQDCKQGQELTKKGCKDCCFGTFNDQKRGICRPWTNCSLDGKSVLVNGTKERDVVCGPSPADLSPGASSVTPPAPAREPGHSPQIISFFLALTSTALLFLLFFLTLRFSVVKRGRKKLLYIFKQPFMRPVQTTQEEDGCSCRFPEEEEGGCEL

| EC50 [nM] | Binder |
| --- | --- |
| 23.8 | B1 |

The binders below were run against human PD-L1 on CHO-K1 cells (human, UniProt Q9NZQ7 19-290) (assay: FACS; MDA-MB-231 cells).
Chain of human PD-L1 on CHO-K1 cells (Q9NZQ7 19-290): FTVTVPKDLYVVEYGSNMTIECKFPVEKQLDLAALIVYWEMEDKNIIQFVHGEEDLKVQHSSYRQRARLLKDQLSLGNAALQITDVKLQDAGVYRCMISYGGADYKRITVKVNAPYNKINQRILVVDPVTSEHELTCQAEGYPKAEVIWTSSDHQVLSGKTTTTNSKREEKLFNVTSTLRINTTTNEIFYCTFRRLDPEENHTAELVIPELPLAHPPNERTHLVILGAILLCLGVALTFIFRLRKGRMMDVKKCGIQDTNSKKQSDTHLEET

| EC50 [nM] | Binder |
| --- | --- |
| 0.203 | B2 |
| 0.216 | B3 |
| 0.299 | B4 |
| 0.22 | B5 |
| 0.263 | B1 |
| 0.253 | B6 |
| 0.161 | B7 |

Biological target: T1, human 4-1BB on CHO-K1 cells
Test: FACS
Remark: another data set of the same source

| EC50 [nM] | Binder |
| --- | --- |
| 4.65 | B2 |
| 5.06 | B3 |
| 12.9 | B4 |
| 5.58 | B5 |
| 8.74 | B6 |
| 2.06 | B7 |
